# Source: patent US20120208237A1 (Novo Nordisk, published 2012)
# Experiments:
# [1] = target: recombinant soluble KIR2DL1 (entire extracellular domain, produced in E. coli) (human) (UniProt P43626); test: Biacore, KIR2DL1 chip; first Ab 1-6F1 bound
# [2] = target: recombinant soluble KIR2DL1 (entire extracellular domain, produced in E. coli) (human) (UniProt P43626); test: Biacore, KIR2DL1 chip; first Ab 1-6F5 bound
# [3] = target: recombinant soluble KIR2DL1 (entire extracellular domain, produced in E. coli) (human) (UniProt P43626); test: Biacore, KIR2DL1 chip; first Ab 1-7F9 bound
# [4] = target: recombinant soluble KIR2DL3 (entire extracellular domain, produced in E. coli) (human) (UniProt P43628); test: Biacore, KIR2DL3 chip; first Ab 1-4F1 bound
# [5] = target: recombinant soluble KIR2DL3 (entire extracellular domain, produced in E. coli) (human) (UniProt P43628); test: Biacore, KIR2DL3 chip; first Ab 1-6F1 bound
# [6] = target: recombinant soluble KIR2DL3 (entire extracellular domain, produced in E. coli) (human) (UniProt P43628); test: Biacore, KIR2DL3 chip; first Ab 1-6F5 bound
# [7] = target: recombinant soluble KIR2DL3 (entire extracellular domain, produced in E. coli) (human) (UniProt P43628); test: Biacore, KIR2DL3 chip; first Ab 1-7F9 bound
# [8] = target: immobilized KIR2DS1 protein (human) (UniProt Q14954); test: Biacore, KIR2DS1 chip; first Ab 1-7F9 bound
# immobilized KIR2DS1 protein (human), sequence (Q14954 22-245 limits assumed): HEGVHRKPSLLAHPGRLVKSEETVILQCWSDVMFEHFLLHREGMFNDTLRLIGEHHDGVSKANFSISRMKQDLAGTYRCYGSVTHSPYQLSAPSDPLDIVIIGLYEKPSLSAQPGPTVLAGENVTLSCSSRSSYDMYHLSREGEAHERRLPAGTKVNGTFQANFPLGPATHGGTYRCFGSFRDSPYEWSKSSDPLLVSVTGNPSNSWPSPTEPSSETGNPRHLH
# [9] = target: recombinant soluble KIR2DL1 (entire extracellular domain, produced in E. coli) (human) (UniProt P43626); test: Biacore competition, KIR2DL1 chip; competitor (second Ab) EB6
# [10] = target: recombinant soluble KIR2DL1 (entire extracellular domain, produced in E. coli) (human) (UniProt P43626); test: Biacore competition, KIR2DL1 chip; competitor (second Ab) 1-4F1
# [11] = target: recombinant soluble KIR2DL1 (entire extracellular domain, produced in E. coli) (human) (UniProt P43626); test: Biacore competition, KIR2DL1 chip; competitor (second Ab) 1-6F1
# [12] = target: recombinant soluble KIR2DL1 (entire extracellular domain, produced in E. coli) (human) (UniProt P43626); test: Biacore competition, KIR2DL1 chip; competitor (second Ab) 1-6F5
# [13] = target: recombinant soluble KIR2DL1 (entire extracellular domain, produced in E. coli) (human) (UniProt P43626); test: Biacore competition, KIR2DL1 chip; competitor (second Ab) 1-7F9
# [14] = target: recombinant soluble KIR2DL1 (entire extracellular domain, produced in E. coli) (human) (UniProt P43626); test: Biacore competition, KIR2DL1 chip; competitor (second Ab) Pan2D
# [15] = target: recombinant soluble KIR2DL1 (entire extracellular domain, produced in E. coli) (human) (UniProt P43626); test: Biacore, KIR2DL1 chip; direct binding (field of first Ab 1-6F1)
# [16] = target: recombinant soluble KIR2DL1 (entire extracellular domain, produced in E. coli) (human) (UniProt P43626); test: Biacore, KIR2DL1 chip; direct binding (field of first Ab 1-6F5)
# [17] = target: recombinant soluble KIR2DL1 (entire extracellular domain, produced in E. coli) (human) (UniProt P43626); test: Biacore, KIR2DL1 chip; direct binding (field of first Ab 1-7F9)
# [18] = target: recombinant soluble KIR2DL3 (entire extracellular domain, produced in E. coli) (human) (UniProt P43628); test: Biacore competition, KIR2DL3 chip; competitor (second Ab) 1-4F1
# [19] = target: recombinant soluble KIR2DL3 (entire extracellular domain, produced in E. coli) (human) (UniProt P43628); test: Biacore competition, KIR2DL3 chip; competitor (second Ab) 1-6F1
# [20] = target: recombinant soluble KIR2DL3 (entire extracellular domain, produced in E. coli) (human) (UniProt P43628); test: Biacore competition, KIR2DL3 chip; competitor (second Ab) 1-6F5
# [21] = target: recombinant soluble KIR2DL3 (entire extracellular domain, produced in E. coli) (human) (UniProt P43628); test: Biacore competition, KIR2DL3 chip; competitor (second Ab) 1-7F9
# [22] = target: recombinant soluble KIR2DL3 (entire extracellular domain, produced in E. coli) (human) (UniProt P43628); test: Biacore competition, KIR2DL3 chip; competitor (second Ab) GL183
# [23] = target: recombinant soluble KIR2DL3 (entire extracellular domain, produced in E. coli) (human) (UniProt P43628); test: Biacore competition, KIR2DL3 chip; competitor (second Ab) Pan2D
# [24] = target: recombinant soluble KIR2DL3 (entire extracellular domain, produced in E. coli) (human) (UniProt P43628); test: Biacore, KIR2DL3 chip; direct binding (field of first Ab 1-4F1)
# [25] = target: recombinant soluble KIR2DL3 (entire extracellular domain, produced in E. coli) (human) (UniProt P43628); test: Biacore, KIR2DL3 chip; direct binding (field of first Ab 1-6F1)
# [26] = target: recombinant soluble KIR2DL3 (entire extracellular domain, produced in E. coli) (human) (UniProt P43628); test: Biacore, KIR2DL3 chip; direct binding (field of first Ab 1-6F5)
# [27] = target: recombinant soluble KIR2DL3 (entire extracellular domain, produced in E. coli) (human) (UniProt P43628); test: Biacore, KIR2DL3 chip; direct binding (field of first Ab 1-7F9)
# [28] = target: immobilized KIR2DS1 protein (human) (UniProt Q14954); test: Biacore competition, KIR2DS1 chip; competitor (second Ab) 1-4F1
# [29] = target: immobilized KIR2DS1 protein (human) (UniProt Q14954); test: Biacore competition, KIR2DS1 chip; competitor (second Ab) 1-7F9
# [30] = target: immobilized KIR2DS1 protein (human) (UniProt Q14954); test: Biacore competition, KIR2DS1 chip; competitor (second Ab) Pan2D
# [31] = target: immobilized KIR2DS1 protein (human) (UniProt Q14954); test: Biacore, KIR2DS1 chip; direct binding (field of first Ab 1-7F9)
# [32] = target: recombinant soluble KIR2DL1 (entire extracellular domain, produced in E. coli) (human) (UniProt P43626); test: Biacore SPR, antibody over immobilized KIR2DL1 (bivalent binding)
# [33] = target: recombinant soluble KIR2DL3 (entire extracellular domain, produced in E. coli) (human) (UniProt P43628); test: Biacore SPR, antibody over immobilized KIR2DL3 (bivalent binding)
# [34] = target: recombinant soluble KIR2DL1 (entire extracellular domain, produced in E. coli) (human) (UniProt P43626); test: Biacore competition (Example 10), KIR2DL1 chip; competitor (second Ab) 1-7F9
# [35] = target: recombinant soluble KIR2DL1 (entire extracellular domain, produced in E. coli) (human) (UniProt P43626); test: Biacore competition (Example 10), KIR2DL1 chip; competitor (second Ab) Pan2D
# [36] = target: recombinant soluble KIR2DL1 (entire extracellular domain, produced in E. coli) (human) (UniProt P43626); test: Biacore competition (Example 10), KIR2DL1 chip; competitor (second Ab) DF200 (self)
# [37] = target: recombinant soluble KIR2DL3 (entire extracellular domain, produced in E. coli) (human) (UniProt P43628); test: Biacore competition (Example 10), KIR2DL3 chip; competitor (second Ab) 1-7F9
# [38] = target: recombinant soluble KIR2DL3 (entire extracellular domain, produced in E. coli) (human) (UniProt P43628); test: Biacore competition (Example 10), KIR2DL3 chip; competitor (second Ab) Pan2D
# [39] = target: recombinant soluble KIR2DL3 (entire extracellular domain, produced in E. coli) (human) (UniProt P43628); test: Biacore competition (Example 10), KIR2DL3 chip; competitor (second Ab) DF200 (self)
# [40] = target: recombinant soluble KIR2DL1 (entire extracellular domain, produced in E. coli) (human) (UniProt P43626); test: Biacore, KIR2DL1 chip; first Ab EB6 bound
# [41] = target: recombinant soluble KIR2DL1 (entire extracellular domain, produced in E. coli) (human) (UniProt P43626); test: Biacore, KIR2DL1 chip; direct binding (field of first Ab EB6)
# [42] = target: recombinant soluble KIR2DL1 (entire extracellular domain, produced in E. coli) (human) (UniProt P43626); test: Biacore competition, KIR2DL1 chip; competitor (second Ab) DF200
# [43] = target: recombinant soluble KIR2DL1 (entire extracellular domain, produced in E. coli) (human) (UniProt P43626); test: Biacore competition, KIR2DL1 chip; competitor (second Ab) EB6 (self)
# [44] = target: recombinant soluble KIR2DL3 (entire extracellular domain, produced in E. coli) (human) (UniProt P43628); test: Biacore competition, KIR2DL3 chip; competitor (second Ab) DF200
# [45] = target: T1, KIR2DS3 expressed on transfected cells (human, UniProt Q14952 22-304); test: flow cytometry on cells transfected with KIR2DS3 (fifth column; its head is printed KIRDLS1 a second time, the legend's order gives KIR2DS3)
# T1 construct: whole, on cells
# T1 sequence (Q14952 22-304): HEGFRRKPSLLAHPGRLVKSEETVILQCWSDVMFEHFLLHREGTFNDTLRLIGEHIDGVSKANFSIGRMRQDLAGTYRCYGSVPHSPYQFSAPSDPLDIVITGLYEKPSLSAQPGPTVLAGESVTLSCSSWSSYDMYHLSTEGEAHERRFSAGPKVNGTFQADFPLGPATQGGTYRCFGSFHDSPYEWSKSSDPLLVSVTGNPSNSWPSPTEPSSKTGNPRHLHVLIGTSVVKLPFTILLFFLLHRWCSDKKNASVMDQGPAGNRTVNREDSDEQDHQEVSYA
# Outline: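 Binding of human anti-KIR monoclonal antibodies to cells stably transfected with KIR2DS3 was measured by flow cytometry. Cells were incubated with the antibody at various concentrations (typically 0-50 μg/ml) in DMEM medium containing 2% FCS. They were then washed and stained with an APC-conjugated secondary antibody specific for human IgG, with all incubations and washes at 0-4° C. Cells were resuspended in PBS and analysed on a FACScalibur or FACScanto.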
molecule,measurement,setting,value
murine monoclonal antibody DF200,"RU, second antibody after first antibody",[1],310 RU
same,"RU, second antibody after first antibody",[2],290 RU
same,"RU, second antibody after first antibody",[3],545 RU
same,"RU, second antibody after first antibody",[4],210 RU
same,"RU, second antibody after first antibody",[5],760 RU
same,"RU, second antibody after first antibody",[6],760 RU
same,"RU, second antibody after first antibody",[7],450 RU
same,"RU, second antibody after first antibody",[8],1090 RU
same,% inhibition of second antibody binding,[9],90%
same,% inhibition of second antibody binding,[10],92%
same,% inhibition of second antibody binding,[11],15%
same,% inhibition of second antibody binding,[12],15%
same,% inhibition of second antibody binding,[13],27%
same,% inhibition of second antibody binding,[14],80%
same,"RU, second antibody alone",[15],350 RU
same,"RU, second antibody alone",[16],350 RU
same,"RU, second antibody alone",[17],600 RU
same,% inhibition of second antibody binding,[18],75%
same,% inhibition of second antibody binding,[19],16%
same,% inhibition of second antibody binding,[20],4%
same,% inhibition of second antibody binding,[21],62%
same,% inhibition of second antibody binding,[22],20%
same,% inhibition of second antibody binding,[23],75%
same,"RU, second antibody alone",[24],1140 RU
same,"RU, second antibody alone",[25],790 RU
same,"RU, second antibody alone",[26],800 RU
same,"RU, second antibody alone",[27],770 RU
same,% inhibition of second antibody binding,[28],87%
same,% inhibition of second antibody binding,[29],15%
same,% inhibition of second antibody binding,[30],70%
same,"RU, second antibody alone",[31],900 RU
same,Kd,[32],10.9 nM
same,Kd,[33],2 nM
same,% inhibition of second antibody binding,[34],17%
same,% inhibition of second antibody binding,[35],85%
same,% inhibition of second antibody binding,[36],80%
same,% inhibition of second antibody binding,[37],80%
same,% inhibition of second antibody binding,[38],50%
same,% inhibition of second antibody binding,[39],85%
murine monoclonal antibody EB6,"RU, second antibody after first antibody",[40],200 RU
same,"RU, second antibody after first antibody",[1],320 RU
same,"RU, second antibody after first antibody",[3],180 RU
same,"RU, second antibody alone",[41],460 RU
same,% inhibition of second antibody binding,[10],48%
same,% inhibition of second antibody binding,[11],23%
same,% inhibition of second antibody binding,[13],65%
same,% inhibition of second antibody binding,[42],60%
same,% inhibition of second antibody binding,[14],40%
same,"RU, second antibody alone",[15],260 RU
same,"RU, second antibody alone",[17],460 RU
same,% inhibition of second antibody binding,[43],57%
murine monoclonal antibody GL183,"RU, second antibody after first antibody",[4],330 RU
same,"RU, second antibody after first antibody",[5],570 RU
same,"RU, second antibody after first antibody",[7],200 RU
same,% inhibition of second antibody binding,[18],75%
same,% inhibition of second antibody binding,[19],18%
same,% inhibition of second antibody binding,[21],76%
same,% inhibition of second antibody binding,[44],8%
same,% inhibition of second antibody binding,[23],40%
same,"RU, second antibody alone",[24],1240 RU
same,"RU, second antibody alone",[25],620 RU
same,"RU, second antibody alone",[27],800 RU
"murine monoclonal antibody NKVSF1 (Pan2D) (antibody, V domains shown, Murine mAb, bought from Serotec (MCA2243)) VH: EVQLQQSGTVLARPGASVKMSCKASGYTFTSYWMHWMKQRPGQGLEWIGTIYPGNSDTNYNQKFKGKAKLTAVTSTNTAYMELSSLTNEDSAVYYCSRPTTATRSSAMDYWGQGTSVTVSS VL: QIVLTQSPASMSASLGERVTMTCTASSSVSSSYLYWYQQKPGSSPKLWIYSTSNLASGVPARFSGSGSGTSYSLTISSMEAEDAATYYCHQYHRSPPTFGGGTKLEIKR",binding result,[45],no binding (tested: 1 µg/ml)
